US20240018502A1
Where a chain is given by its changes, count along the chain named. Names may count otherwise.

B1: MTSP-1 Q38H/I41S/D60bT/F60eS/Y60gW/D96K/F97G/ins97aV/T98P/C122S/G151H/Q175L/Q192D (enzyme)
chain: VVGGTDADEGEWPWQVSLHALGHGHSCGASLISPNWLVSAAHCYIDTRGSRWSDPTQWTAFLGLHDQSQRSAPGVQERRLKRIISHPFFNKGVPFDYDIALLELEKPAEYSSMVRPISLPDASHVFPAGKAIWVTGWGHTQYGGTHALILQKGEIRVINQTTCENLLPQLITPRMMCVGFLSGGVDSCDGDSGGPLSSVEADGRIFQAGVVSWGDGCAQRNKPGVYTRLPLFRDWIKENTGV
B2: MTSP-1 Q38H/I41S/D60bT/F60eS/Y60gW/D96K/F97G/ins97aV/T98P/F99L/C122S/G151H/Q192D (enzyme)
chain: B1 chain with F95L, L170Q
B3: MTSP-1 Q38H/I41S/D60bT/F60eS/Y60gW/D96K/F97G/ins97aV/T98P/F99L/C122S/Q175L/Q192D (enzyme)
chain: B1 chain with F95L, H146G
B4: MTSP-1 protease domain I41G/F97E/F99L/C122S/Q192A (enzyme)
chain: VVGGTDADEGEWPWQVSLHALGQGHGCGASLISPNWLVSAAHCYIDDRGFRYSDPTQWTAFLGLHDQSQRSAPGVQERRLKRIISHPFFNDETLDYDIALLELEKPAEYSSMVRPISLPDASHVFPAGKAIWVTGWGHTQYGGTGALILQKGEIRVINQTTCENLLPQQITPRMMCVGFLSGGVDSCAGDSGGPLSSVEADGRIFQAGVVSWGDGCAQRNKPGVYTRLPLFRDWIKENTGV
B5: MTSP-1 protease domain I41S/F99L/C122S/G151N/Q175M/Q192G/D217V (enzyme)
chain: B4 chain with G26S, E92F, G145N, Q169M, A188G, D214V
B6: MTSP-1 protease domain I41A/Y60gW/F99L/C122S/Q175T/Q192A (enzyme)
chain: B4 chain with G26A, Y52W, E92F, Q169T
B7: MTSP-1 protease domain I41G/F97R/F99L/C122S/G151N/Q175L/Q192S/D217V (enzyme)
chain: B4 chain with E92R, G145N, Q169L, A188S, D214V
B8: MTSP-1 protease domain I41S/F97L/F99L/C122S/G151N/Q192G/D217V (enzyme)
chain: B4 chain with G26S, E92L, G145N, A188G, D214V
B9: MTSP-1 protease domain I41S/T98S/F99L/C122S/Q192A (enzyme)
chain: B4 chain with G26S, E92F, T93S
B10: MTSP-1 protease domain I41T/Y60gL/N95D/D96F/F97S/F99L/C122S/Q175S/Q192A (enzyme)
chain: B4 chain with G26T, Y52L, N90D, D91F, E92S, Q169S
B11: MTSP-1 protease domain I41L/N95D/D96T/F97W/F99L/C122S/Q192A (enzyme)
chain: B4 chain with G26L, N90D, D91T, E92W
B12: MTSP-1 protease domain I41A/Y60gW/N95D/D96F/F97G/F99L/C122S/Q175H/Q192A (enzyme)
chain: B4 chain with G26A, Y52W, N90D, D91F, E92G, Q169H
B13: MTSP-1 protease domain I41S/F97S/F99L/C122S/G151N/Q175L/Q192A/D217L (enzyme)
chain: B4 chain with G26S, E92S, G145N, Q169L, D214L
B14: MTSP-1 protease domain I41S/F97Q/F99L/C122S/Q192S (enzyme)
chain: B4 chain with G26S, E92Q, A188S
B15: MTSP-1 protease domain I41G/F97L/F99L/C122S/Q192S (enzyme)
chain: B4 chain with E92L, A188S
B16: MTSP-1 protease domain I41A/F97W/T98S/F99L/C122S/Q192A (enzyme)
chain: B4 chain with G26A, E92W, T93S
B17: MTSP-1 protease domain I41S/ins97aV/C122S/Q192V/D217V (enzyme)
chain: VVGGTDADEGEWPWQVSLHALGQGHSCGASLISPNWLVSAAHCYIDDRGFRYSDPTQWTAFLGLHDQSQRSAPGVQERRLKRIISHPFFNDFVTFDYDIALLELEKPAEYSSMVRPISLPDASHVFPAGKAIWVTGWGHTQYGGTGALILQKGEIRVINQTTCENLLPQQITPRMMCVGFLSGGVDSCVGDSGGPLSSVEADGRIFQAGVVSWGVGCAQRNKPGVYTRLPLFRDWIKENTGV
B18: MTSP-1 protease domain I41S/Y59F/F97Y/ins97aV/C122S/Q192G (enzyme)
chain: B17 chain with Y44F, F92Y, V189G, V215D
B19: MTSP-1 protease domain I41S/D60bY/ins97aV/T98N/C122S/Q192H (enzyme)
chain: B17 chain with D47Y, T94N, V189H, V215D
B20: MTSP-1 protease domain I41S/F97G/ins97aA/T98P/C122S/Q192A (enzyme)
chain: B17 chain with F92G, V93A, T94P, V189A, V215D
B21: MTSP-1 protease domain I41S/ins97aV/C122S/N164D/Q192G/R235L (enzyme)
chain: B17 chain with N159D, V189G, V215D, R233L
B22: MTSP-1 protease domain I41S/ins97aV/C122S/N164D/Q192G/R235H (enzyme)
chain: B17 chain with N159D, V189G, V215D, R233H
B23: MTSP-1 protease domain I41A/F97G/ins97aM/T98L/C122S (enzyme)
chain: B17 chain with S26A, F92G, V93M, T94L, V189Q, V215D
B24: MTSP-1 protease domain A35T/I41S/Y59F/ins97aV/C122S/Y146F/V183A/Q192G/R235H (enzyme)
chain: B17 chain with A20T, Y44F, Y142F, V178A, V189G, V215D, R233H
B25: MTSP-1 protease domain I41S/Y59F/D60bY/ins97aV/C122S/Q192G (enzyme)
chain: B17 chain with Y44F, D47Y, V189G, V215D
B26: MTSP-1 protease domain Q38H/I41T/D96R/ins97aG/C122S/G151S (enzyme)
chain: B17 chain with Q23H, S26T, D91R, V93G, G146S, V189Q, V215D
B27: MTSP-1 protease domain I41A/F97S/ins97aA/C122S (enzyme)
chain: B17 chain with S26A, F92S, V93A, V189Q, V215D
B28: MTSP-1 protease domain I41A/F97G/ins97aV/T98E/C122S (enzyme)
chain: B17 chain with S26A, F92G, T94E, V189Q, V215D
B29: MTSP-1 protease domain I41S/D96K/F97G/ins97aV/T98P/F99L/C122S/Q192V (enzyme)
chain: B17 chain with D91K, F92G, T94P, F95L, V215D
B30: MTSP-1 protease domain I41S/D96K/F97G/ins97aV/T98P/F99L/C122S/Q175H/Q192D (enzyme)
chain: B1 chain with H23Q, T47D, S50F, W52Y, F95L, H146G, L170H
B31: MTSP-1 protease domain I41S/Y59F/ins97aV/C122S/Q192G/N223D (enzyme)
chain: B17 chain with Y44F, V189G, V215D, N221D
B32: MTSP-1 protease domain I41S/Y59F/ins97aV/C122S/Q192A (enzyme)
chain: B17 chain with Y44F, V189A, V215D
B33: MTSP-1 protease domain I41S/D60bY/ins97aV/A112V/C122S/Q192G/Q209L (enzyme)
chain: B17 chain with D47Y, A108V, V189G, Q207L, V215D
B34: MTSP-1 protease domain I41S/F97V/ins97aV/T98P/C122S (enzyme)
chain: B17 chain with F92V, T94P, V189Q, V215D
B35: MTSP-1 protease domain Q38M/I41T/D96M/ins97aH/C122S/G151E (enzyme)
chain: B17 chain with Q23M, S26T, D91M, V93H, G146E, V189Q, V215D

Biological target: plasma purified human complement protein C3 (human) (UniProt P01024)
Sequence (P01024 23-667, chain 1 of 2): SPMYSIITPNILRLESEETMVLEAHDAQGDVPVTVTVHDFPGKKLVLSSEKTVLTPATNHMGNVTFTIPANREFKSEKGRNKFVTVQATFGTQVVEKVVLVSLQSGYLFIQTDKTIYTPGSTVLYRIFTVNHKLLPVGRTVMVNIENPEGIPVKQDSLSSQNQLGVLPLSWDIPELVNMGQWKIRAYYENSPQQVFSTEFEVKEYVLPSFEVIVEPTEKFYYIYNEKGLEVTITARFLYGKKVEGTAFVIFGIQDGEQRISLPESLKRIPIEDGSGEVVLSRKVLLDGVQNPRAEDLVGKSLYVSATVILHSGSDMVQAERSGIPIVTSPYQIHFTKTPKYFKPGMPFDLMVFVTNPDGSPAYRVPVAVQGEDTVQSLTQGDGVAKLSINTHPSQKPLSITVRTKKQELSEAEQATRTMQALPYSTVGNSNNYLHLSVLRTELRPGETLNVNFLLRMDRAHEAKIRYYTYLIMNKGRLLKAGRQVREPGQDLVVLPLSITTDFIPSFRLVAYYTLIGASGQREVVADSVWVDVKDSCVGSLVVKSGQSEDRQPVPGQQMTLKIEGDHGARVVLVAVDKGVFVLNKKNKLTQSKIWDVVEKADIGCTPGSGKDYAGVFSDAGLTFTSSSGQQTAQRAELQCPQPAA
Sequence (P01024 672-1663, chain 2 of 2): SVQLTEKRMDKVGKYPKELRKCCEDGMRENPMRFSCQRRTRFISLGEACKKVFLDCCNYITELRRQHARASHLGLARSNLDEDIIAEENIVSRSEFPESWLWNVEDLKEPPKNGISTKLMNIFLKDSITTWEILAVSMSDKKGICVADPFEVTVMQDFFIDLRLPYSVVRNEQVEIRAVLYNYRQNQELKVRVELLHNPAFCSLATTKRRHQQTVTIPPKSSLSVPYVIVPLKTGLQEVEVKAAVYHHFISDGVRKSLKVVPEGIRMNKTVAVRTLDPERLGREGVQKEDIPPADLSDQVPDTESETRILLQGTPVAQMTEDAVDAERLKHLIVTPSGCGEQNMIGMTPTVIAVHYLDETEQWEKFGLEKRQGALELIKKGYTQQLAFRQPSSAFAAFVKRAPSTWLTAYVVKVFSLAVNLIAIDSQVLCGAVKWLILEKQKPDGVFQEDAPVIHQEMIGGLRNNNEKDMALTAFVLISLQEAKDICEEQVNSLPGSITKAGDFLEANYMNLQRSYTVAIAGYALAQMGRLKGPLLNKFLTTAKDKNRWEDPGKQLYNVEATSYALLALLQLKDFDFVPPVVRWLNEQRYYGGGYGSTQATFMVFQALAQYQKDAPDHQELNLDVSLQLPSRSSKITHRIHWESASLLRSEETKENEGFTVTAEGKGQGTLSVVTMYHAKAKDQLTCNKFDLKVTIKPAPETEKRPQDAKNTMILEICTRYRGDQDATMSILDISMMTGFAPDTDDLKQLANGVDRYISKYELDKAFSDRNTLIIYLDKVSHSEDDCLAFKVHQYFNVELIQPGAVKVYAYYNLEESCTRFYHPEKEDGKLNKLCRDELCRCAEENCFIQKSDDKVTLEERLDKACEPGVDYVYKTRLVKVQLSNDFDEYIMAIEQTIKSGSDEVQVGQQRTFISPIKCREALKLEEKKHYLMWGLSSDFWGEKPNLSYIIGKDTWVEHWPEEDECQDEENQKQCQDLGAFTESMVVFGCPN
Experiment: cell-based or functional assay

| Binder | EC50 of hC3 cleavage [nM] | EC50 hC3 cleavage [nM] |
| --- | --- | --- |
| B1 | 18.3 |  |
| B2 | 19.9 |  |
| B3 | 5.25 |  |
| B4 |  | 30.1 |
| B5 |  | 3.19 |
| B6 |  | 17.6 |
| B7 |  | 4.18 |
| B8 |  | 11.9 |
| B9 |  | 17.4 |
| B10 |  | 247 |
| B11 |  | 62.6 |
| B12 |  | 17.5 |
| B13 |  | 11.2 |
| B14 |  | 53.5 |
| B15 |  | 41.4 |
| B16 |  | 27 |
| B17 |  | 11 |
| B18 |  | 29.1 |

| Binder | EC50 of hC3 cleavage [nM] | EC50 hC3 cleavage [nM] |
| --- | --- | --- |
| B19 |  | 8.1 |
| B20 |  | 57.2 |
| B21 |  | 49.7 |
| B22 |  | 46.4 |
| B23 |  | 40.1 |
| B24 |  | 18.4 |
| B25 |  | 5.24 |
| B26 |  | 54.1 |
| B27 |  | 19.8 |
| B28 |  | 18.1 |
| B29 |  | 32.3 |
| B30 |  | 195 |
| B31 |  | 34.1 |
| B32 |  | 16.6 |
| B33 |  | 4.76 |
| B34 |  | 30.9 |
| B35 |  | 19.1 |
